The results in this text go back to patent publication US6525022B1, “Receptor specific atrial natriuretic peptides” (Genentech, Inc., priority 1993, dated 2003).

In assay [1] the target is T1, human natriuretic peptide clearance receptor-C (human), P17342.
T1 chain: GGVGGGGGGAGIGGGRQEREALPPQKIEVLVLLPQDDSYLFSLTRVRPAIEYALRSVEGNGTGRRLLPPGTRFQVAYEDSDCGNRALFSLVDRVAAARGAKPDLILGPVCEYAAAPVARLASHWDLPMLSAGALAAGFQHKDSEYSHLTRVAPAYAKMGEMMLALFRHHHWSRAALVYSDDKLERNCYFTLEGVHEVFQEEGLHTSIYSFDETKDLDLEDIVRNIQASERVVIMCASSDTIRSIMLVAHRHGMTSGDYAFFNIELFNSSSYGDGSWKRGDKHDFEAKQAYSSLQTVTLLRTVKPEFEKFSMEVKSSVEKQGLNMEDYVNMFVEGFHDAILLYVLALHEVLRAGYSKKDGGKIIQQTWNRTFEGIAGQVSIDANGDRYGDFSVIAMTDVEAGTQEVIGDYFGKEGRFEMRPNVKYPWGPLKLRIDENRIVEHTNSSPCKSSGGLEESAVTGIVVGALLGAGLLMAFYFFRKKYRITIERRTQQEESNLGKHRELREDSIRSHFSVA
In words: competition binding, Table I; tracer and receptor format not given.

Assay [2] addresses T2, human natriuretic peptide receptor-A (human), P16066.
T2 chain: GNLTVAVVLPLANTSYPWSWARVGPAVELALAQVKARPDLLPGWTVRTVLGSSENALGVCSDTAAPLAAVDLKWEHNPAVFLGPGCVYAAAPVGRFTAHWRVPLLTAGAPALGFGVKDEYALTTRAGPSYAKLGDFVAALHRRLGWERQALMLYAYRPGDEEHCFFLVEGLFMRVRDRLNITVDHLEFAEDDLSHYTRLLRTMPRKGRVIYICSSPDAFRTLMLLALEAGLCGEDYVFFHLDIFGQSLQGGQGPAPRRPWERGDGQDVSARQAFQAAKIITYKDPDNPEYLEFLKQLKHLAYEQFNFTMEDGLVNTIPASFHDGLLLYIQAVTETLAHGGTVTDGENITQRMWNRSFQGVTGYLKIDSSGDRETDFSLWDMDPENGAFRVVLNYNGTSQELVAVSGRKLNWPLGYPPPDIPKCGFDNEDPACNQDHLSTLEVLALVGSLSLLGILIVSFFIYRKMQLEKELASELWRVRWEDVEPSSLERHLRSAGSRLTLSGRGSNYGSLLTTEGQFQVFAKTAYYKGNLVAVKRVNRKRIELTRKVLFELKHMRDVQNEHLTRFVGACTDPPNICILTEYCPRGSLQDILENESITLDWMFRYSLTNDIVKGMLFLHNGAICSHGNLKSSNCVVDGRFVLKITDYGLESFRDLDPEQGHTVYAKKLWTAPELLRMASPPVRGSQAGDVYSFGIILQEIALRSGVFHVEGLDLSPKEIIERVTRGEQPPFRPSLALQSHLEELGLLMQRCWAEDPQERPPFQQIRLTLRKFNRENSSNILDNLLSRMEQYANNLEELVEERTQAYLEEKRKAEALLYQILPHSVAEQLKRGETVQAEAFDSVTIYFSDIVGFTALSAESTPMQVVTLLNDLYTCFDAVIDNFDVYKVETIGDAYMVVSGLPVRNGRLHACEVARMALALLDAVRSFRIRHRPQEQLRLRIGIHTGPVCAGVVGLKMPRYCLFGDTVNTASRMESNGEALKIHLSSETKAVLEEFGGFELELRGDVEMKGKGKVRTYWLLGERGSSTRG
Described as above.

Assay [3] deals with T3, human neutral endopeptidase 24.11 (human), P08473.
T3 chain: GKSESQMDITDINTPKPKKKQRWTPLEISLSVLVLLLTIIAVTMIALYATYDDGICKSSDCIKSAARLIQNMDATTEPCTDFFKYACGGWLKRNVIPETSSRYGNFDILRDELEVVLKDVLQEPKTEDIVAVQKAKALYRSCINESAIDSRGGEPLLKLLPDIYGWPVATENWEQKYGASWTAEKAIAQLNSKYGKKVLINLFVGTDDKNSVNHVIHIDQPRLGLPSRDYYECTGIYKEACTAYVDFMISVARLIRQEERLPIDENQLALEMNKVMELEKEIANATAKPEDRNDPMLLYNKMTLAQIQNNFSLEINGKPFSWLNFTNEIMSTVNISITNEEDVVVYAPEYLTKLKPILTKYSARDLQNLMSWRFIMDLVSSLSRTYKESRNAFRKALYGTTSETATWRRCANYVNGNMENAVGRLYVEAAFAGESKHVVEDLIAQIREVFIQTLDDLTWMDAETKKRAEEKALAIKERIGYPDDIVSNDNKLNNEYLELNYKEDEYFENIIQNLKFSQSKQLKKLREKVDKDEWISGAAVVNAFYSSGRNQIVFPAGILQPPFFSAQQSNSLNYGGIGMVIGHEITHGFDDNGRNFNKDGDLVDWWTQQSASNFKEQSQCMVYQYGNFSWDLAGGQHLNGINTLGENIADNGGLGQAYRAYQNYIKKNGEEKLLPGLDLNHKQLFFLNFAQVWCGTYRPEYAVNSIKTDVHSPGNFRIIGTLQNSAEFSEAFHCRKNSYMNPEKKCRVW
Kind of assay: cell-based or functional assay.

Assay [4] concerns the target human neutral endopeptidase 24.11 (human, UniProt P08473 2-750, limits assumed). In words: cell-based or functional assay.
In assay [5] the target is T4, human natriuretic peptide receptor-A (human, UniProt P16066 33-1061).
T4 construct: whole, on cells; also called hNPR-A; human NPR-A
T4 sequence (looked up): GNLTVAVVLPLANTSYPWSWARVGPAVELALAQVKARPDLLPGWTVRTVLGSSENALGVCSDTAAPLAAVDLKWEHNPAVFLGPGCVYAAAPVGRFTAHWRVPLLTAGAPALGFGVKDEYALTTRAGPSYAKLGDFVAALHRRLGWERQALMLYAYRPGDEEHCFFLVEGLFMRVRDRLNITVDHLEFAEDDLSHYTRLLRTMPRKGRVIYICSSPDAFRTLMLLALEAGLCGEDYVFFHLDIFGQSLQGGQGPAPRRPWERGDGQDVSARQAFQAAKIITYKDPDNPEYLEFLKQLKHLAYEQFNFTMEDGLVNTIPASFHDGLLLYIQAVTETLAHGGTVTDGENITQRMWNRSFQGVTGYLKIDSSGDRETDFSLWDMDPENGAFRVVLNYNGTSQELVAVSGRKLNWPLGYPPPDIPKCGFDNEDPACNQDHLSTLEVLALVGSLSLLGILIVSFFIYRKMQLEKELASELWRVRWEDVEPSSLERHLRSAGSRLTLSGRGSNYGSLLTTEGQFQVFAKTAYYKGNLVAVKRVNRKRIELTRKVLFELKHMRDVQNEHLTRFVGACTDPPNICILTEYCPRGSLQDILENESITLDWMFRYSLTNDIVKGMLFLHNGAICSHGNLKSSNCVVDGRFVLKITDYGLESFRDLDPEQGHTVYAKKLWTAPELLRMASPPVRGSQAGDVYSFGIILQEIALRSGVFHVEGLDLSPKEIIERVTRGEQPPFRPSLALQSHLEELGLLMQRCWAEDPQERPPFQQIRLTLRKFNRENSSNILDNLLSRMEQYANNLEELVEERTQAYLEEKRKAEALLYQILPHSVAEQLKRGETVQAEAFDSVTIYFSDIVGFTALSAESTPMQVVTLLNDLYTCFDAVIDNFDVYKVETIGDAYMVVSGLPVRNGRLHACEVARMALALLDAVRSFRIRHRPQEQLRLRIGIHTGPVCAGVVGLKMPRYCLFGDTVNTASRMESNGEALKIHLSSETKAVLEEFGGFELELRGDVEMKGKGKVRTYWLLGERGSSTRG
In words: competition binding, Table I; tracer and receptor format not given.

Assay [6] has as its target T5, human natriuretic peptide clearance receptor-C (human, UniProt P17342 27-541).
T5 construct: whole, on cells; also called hNPR-C; human NPR-C
T5 sequence (looked up): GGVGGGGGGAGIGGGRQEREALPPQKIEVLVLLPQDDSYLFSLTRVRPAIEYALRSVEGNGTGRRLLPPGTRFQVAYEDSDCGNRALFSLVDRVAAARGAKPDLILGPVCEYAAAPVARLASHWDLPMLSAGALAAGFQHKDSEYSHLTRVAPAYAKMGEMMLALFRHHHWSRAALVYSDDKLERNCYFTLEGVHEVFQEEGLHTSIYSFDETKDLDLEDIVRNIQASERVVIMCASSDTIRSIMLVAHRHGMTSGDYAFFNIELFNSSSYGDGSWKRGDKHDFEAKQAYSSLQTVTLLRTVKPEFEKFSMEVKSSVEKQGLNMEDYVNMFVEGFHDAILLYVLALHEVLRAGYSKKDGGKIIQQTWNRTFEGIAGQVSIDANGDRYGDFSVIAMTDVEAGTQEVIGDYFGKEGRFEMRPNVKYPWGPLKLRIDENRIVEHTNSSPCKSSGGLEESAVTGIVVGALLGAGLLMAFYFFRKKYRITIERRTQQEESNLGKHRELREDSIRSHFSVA
Described as above.

Bridges are numbered along the chain shown (N, C = ends). Where no end group is shown, it is not given here.

As to SLRRSSCFGKSMDRIGAQSGLGCNSFRY (modifications not checked) [ANF 60], the IC50 in assay [1] worked out at 5.98 nM; in assay [2] it was 0.112 nM. Also, the Half-Life in assay [3] was 5.07 h.

B1: ANF 51 (peptide)
peptide: SLRRSSCFERPMDRIGAQSGLGCNSFRY
modifications: disulfide 7-23
notes: Cys7-Cys23 disulfide; also called hANF(1-28) G9E, G10R, R11P
For B1, in assay [4], the “Half-life at 0.075 µg/ml NEP” value came out at 32.1 h and the “Half-life at 0.15 µg/ml NEP” value turned out to be 4.48 h. Moreover, the IC50 in assay [5] is 4.55 nM. Besides, in assay [6], the IC50 worked out at 32.2 nM.
Molecule TAPRSLRRSSCFTGSIDRIRAQSGLGCNSFRY (modifications not checked) [ANF 76] gave an IC50 in assay [2] of 0.0089 nM. Further, the Half-Life in assay [3] is 23.5 h.
